Assay results reported in paper PMC3821027.
Like-named read-outs stand apart in the source and are kept apart here.

How the values were obtained:
[1] = test system: rCTS (TRX-L1 ORF2p CTS, wild type) (Homo sapiens (LRE1 / L1.2 element, pSM42)); test: EMSA
[2] = test system: rCTS (TRX-L1 ORF2p CTS, wild type) (Homo sapiens (LRE1 / L1.2 element, pSM42)); test: EMSA; remark: listed apart in the source

## 380 nt L1 3'UTR RNA
[1]
  Kd: 57 nM
[2]
  Kd: 63 nM
